{"source": "patent US20250268938A1", "about": "“SMALL MOLECULE-REGULATED CELL SIGNALING EXPRESSION SYSTEM” (Outpace Bio, Inc., priority 2021, published 2025)", "system": "Jurkat cells", "assay": "Kill switch percent killing in Jurkat cells (flow cytometry)", "format": "cell-based", "conditions": "for percent killing in the absence of a scaffolded NS3a: danoprevir or grazoprevir treatment, 500 nM; for percent killing, miniaturized DNCR2 designs fused to caspase-9 with homo-oligomerized NS3a scaffolds: co-expressed with CAR-NS3a, CAR-NS3a-NS3a or dimer-NS3a", "description": "Kill switch-positive cells (le5) were incubated for 24-48 hours with inducer drug before staining and analysis for death. Conditions were normalized to contain about 50% transduction positive (+) cells by adding untransduced Jurkat or primary T cells in order to get accurate statistics on death.\nFlow cytometry was performed on a Ze5 cytometer (Biorad). To determine expression of markers, between 1×10^5-2×10^5 total cells were transferred to a U-bottom 96 well culture dish (Corning). Cells were washed twice with Cell Staining Buffer (BioLegend), then stained with Zombie Violet (1:1000, BioLegend) and ROR1-FC for ROR1-specific CAR constructs (20 min at room temperature). Cells were washed twice in Cell Staining Buffer, then stained with Annexin V-PE (BD) in 1× Annexin V Binding Buffer (BD) for 15 min at room temperature. After staining, cells were washed once with Annexin V Binding Buffer, resuspended in AnneinV Binding Buffer and immediately analyzed.\nFlow cytometry data was analyzed using FlowJo 10 (Tree Star). Percent killing was calculated by gating on live cells, then calculating 100*((percent GFP positive DMSO condition)−(percent GFP positive drug condition))/(percent GFP positive DMSO condition).\nWe first tested for drug-induced death of Jurkat cells by fusing NS3a and DNCR2 separately to the catalytic domain of caspase-9 (NCDC). The small molecule inducible homodimer FKBP-F36V (iCasp9), which is dimerized by AP1903 (rimiducid) and the inducible heterodimer FKBP/rapamycin/FRB dimer (rapaCasp9) were used as controls. Briefly, Jurkat cells expressing NCDC, iCasp9, or rapaCasp9 were exposed to danoprevir, rimiducid or rapamycin, respectively, for 24 hours and analyzed by flow cytometry with gating set to measure killing in the top about 10% of cells expressing the highest amount of the GFP kill switch transduction marker.\nTo evaluate the kill switch designs of FIG. 8A, constructs were expressed in Jurkat cells, treated with 500 nM danoprevir (DNCR2-casp-9) or 500 nM grazoprevir (GNCR1-casp-9) and cell death measured by percent killing as described herein above.\nThe miniaturized versions of DNCR2, D1 and D9, were fused to caspase-9 and co-expressed in Jurkat cells with homo-oligomerized NS3a scaffolds. We also evaluated a CAR construct that included an additional copy of NS3a (CAR-2×NS3a). The original DNCR2-casp-9 was used as a control. Jurkat cells expressing different DNCR2 variants fused to caspase-9 along with CAR-NS3a, CAR-NS3a-NS3a, or dimer-NS3a were treated with 500 nM danoprevir and cell death was measured by percent killing as described herein above.\nWe explored the ability of other human killing domains to induce cell death in Jurkat and primary human T cells. We fused FKBP-F36V to a panel of killing domains that included caspase-9 D330A, caspase-9, caspase-1, caspase-4, and the necroptosis-inducing protein RIPK3. Briefly, Jurkat and primary human CD4+/CD8+ T cells expressing FKBP(F36V)-fused killing domains were treated with 10 nM rimiducid and cell death was measured by percent killing as described herein above."}
{"molecule": "DNCR2-casp-9: caspase-9 fused to DNCR2 (protein) MSSDEEEARELIERAKEAAERAQEAAERTGDPRVRELARELKRLAQEAAEEVKRDPSSSDVNEALKLIVEAIEAAVDALEAAERTGDPEVRELARELVRLAVEAAEEVQRNPSSSDVNEALHSIVYAIEAAIFALEAAERTGDPEVRELARELVRLAVEAAEEVQRNPSSRNVEHALMRIVLAIYLAEENLREAEESGDPEKREKARERVREAVERAEEVQRDPSGWLNHSGSASGSGGFGDVGALESLRGNADLAYILSMEPCGHCLIINNVNFCRESGLRTRTGSNIDCEKLRRRFSSLHFMVEVKGDLTAKKMVLALLELAQQDHGALDCCVVVILSHGCQASHLQFPGAVYGTDGCPVSVEKIVNIFNGTSCPSLGGKPKLFFIQACGGEQKDHGFEVASTSPEDESPGSNPEPDATPFQEGLRTFDQLAAISSLPTPSDIFVSYSTFPGFVSWRDPKSGSWYVETLDDIFEQWAHSEDLQSLLLRVANAVSVKGIYKQMPGCFNFLRKKLFFKTSGSGATNFSLLKQAGDVEENPG", "values": [{"measurement": "percent killing in the absence of a scaffolded NS3a", "result": "did not induce Jurkat death"}]}
{"molecule": "GNCR1-casp-9: caspase-9 fused to GNCR1 (protein) MDIEKLCKKAEEEAKEAQEKADELRQRHPDSQAAEDAEDLANLAVAAVLTACLLAQEHPNADIAKLCIKAASEAAEAASKAAELAQRHPDSQAARDAIKLASQAARAVILAIMLAAENPNADIAKLCIKAASEAAEAASKAAELAQRHPDSQAARDAIKLASQAAEAVERAIWLAAENPNADIAKKCIKAASEAAEEASKAAEEAQRHPDSQKARDEIKEASQKAEEVKERCKSGSASGSGGFGDVGALESLRGNADLAYILSMEPCGHCLIINNVNFCRESGLRTRTGSNIDCEKLRRRFSSLHFMVEVKGDLTAKKMVLALLELAQQDHGALDCCVVVILSHGCQASHLQFPGAVYGTDGCPVSVEKIVNIFNGTSCPSLGGKPKLFFIQACGGEQKDHGFEVASTSPEDESPGSNPEPDATPFQEGLRTFDQLDAISSLPTPSDIFVSYSTFPGFVSWRDPKSGSWYVETLDDIFEQWAHSEDLQSLLLRVANAVSVKGIYKQMPGCFNFLRKKLFFKTS", "values": [{"measurement": "percent killing in the absence of a scaffolded NS3a", "result": "did not induce Jurkat death"}]}
{"molecule": "D9: minimized version of DNCR2 fused to caspase-9 (protein) MELEEVLKDLEEALERLRNEELRRLIEEIAELLRRRDDHSIIYMIEALIFVIEAVERTGDERIEKLLEELIKRIRNGDDDSAIMRIVLAVYLIEENLRESGSASGSGGFGDVGALESLRGNADLAYILSMEPCGHCLIINNVNFCRESGLRTRTGSNIDCEKLRRRFSSLHFMVEVKGDLTAKKMVLALLELAQQDHGALDCCVVVILSHGCQASHLQFPGAVYGTDGCPVSVEKIVNIFNGTSCPSLGGKPKLFFIQACGGEQKDHGFEVASTSPEDESPGSNPEPDATPFQEGLRTFDQLAAISSLPTPSDIFVSYSTFPGFVSWRDPKSGSWYVETLDDIFEQWAHSEDLQSLLLRVANAVSVKGIYKQMPGCFNFLRKKLFFKTS", "values": [{"measurement": "percent killing, miniaturized DNCR2 designs fused to caspase-9 with homo-oligomerized NS3a scaffolds", "setting": "500 nM danoprevir", "result": "comparable Jurkat death as the original DNCR2-casp-9"}]}
{"molecule": "D1: minimized version of DNCR2 fused to caspase-9 (protein) MDDNEAEKLIREAEEAAKDAEEAAERTGDPEVRELARELVRLAKEAAEEVQRNPSSSDVNEALHSIVYAIEAAIFALEAAERTGDPEVRELARELVRLAVEAAEEVQRNPSSRNVEHALMRIVLAIYLAEENLRESGSASGSGGFGDVGALESLRGNADLAYILSMEPCGHCLIINNVNFCRESGLRTRTGSNIDCEKLRRRFSSLHFMVEVKGDLTAKKMVLALLELAQQDHGALDCCVVVILSHGCQASHLQFPGAVYGTDGCPVSVEKIVNIFNGTSCPSLGGKPKLFFIQACGGEQKDHGFEVASTSPEDESPGSNPEPDATPFQEGLRTFDQLAAISSLPTPSDIFVSYSTFPGFVSWRDPKSGSWYVETLDDIFEQWAHSEDLQSLLLRVANAVSVKGIYKQMPGCFNFLRKKLFFKTS", "values": [{"measurement": "percent killing, miniaturized DNCR2 designs fused to caspase-9 with homo-oligomerized NS3a scaffolds", "setting": "500 nM danoprevir", "result": "comparable Jurkat death as the original DNCR2-casp-9"}]}
{"molecule": "CAR-2×NS3a: CAR construct that included an additional copy of NS3a (protein) CPPCPMFWVLVVVGGVLACYSLLVTVAFIIFWVKRGRKKLLYIFKQPFMRPVQTTQEEDGCSCRFPEEEEGGCELASGSASGSASMKKKGSVVIVGRINLSGDTAYSQQTRGLEGCQETSQTGRDKNQVEGEVQVVSTATQSFLATSINGVLWTVYHGAGTRTIASPKGPVTQMYTNVDKDLVGWQAPQGSRSLTPCTCGSSDLYLVTRHADVIPVRRRGDSRGSLLSPRPISYLKGSAGGPLLCPAGHAVGIFRAAVSTRGVAKAVDFIPVESLETTMRSPGSSGSSGSSGGKKKGSVVIVGRINLSGDTAYSQQTRGLEGCQETSQTGRDKNQVEGEVQVVSTATQSFLATSINGVLWTVYHGAGTRTIASPKGPVTQMYTNVDKDLVGWQAPQGSRSLTPCTCGSSDLYLVTRHADVIPVRRRGDSRGSLLSPRPISYLKGSAGGPLLCPAGHAVGIFRAAVSTRGVAKAVDFIPVESLETTMRSP", "values": [{"measurement": "percent killing, miniaturized DNCR2 designs fused to caspase-9 with homo-oligomerized NS3a scaffolds", "setting": "500 nM danoprevir", "result": "increased killing further"}]}
{"molecule": "dimer-NS3a: NS3a fused to C-terminus of designed homo-oligomeric helical bundle, dimer (SEQ ID NO: 42) (protein) MTRTEIIRELERSLREQEELAKRLKELLRELERLQREGSSDEDVRELLREIKELVEEIEKLAREQKYLVEELKRQDGSASGSASMKKKGSVVIVGRINLSGDTAYSQQTRGLEGCQETSQTGRDKNQVEGEVQVVSTATQSFLATSINGVLWTVYHGAGTRTIASPKGPVTQMYTNVDKDLVGWQAPQGSRSLTPCTCGSSDLYLVTRHADVIPVRRRGDSRGSLLSPRPISYLKGSAGGPLLCPAGHAVGIFRAAVSTRGVAKAVDFIPVESLETTMRSP", "values": [{"measurement": "percent killing, NS3a scaffold with DNCR2-casp-9", "setting": "500 nM danoprevir", "result": "comparable killing to iCasp9"}]}
{"molecule": "hexamer-NS3a: NS3a fused to C-terminus of designed homo-oligomeric helical bundle, hexamer (SEQ ID NO: 43) (protein) MTEDEIRKLRKLLEEAEKKLKKLEDKTRRSEEISKTDDDPKAQSLQLIAESLMLIAESLLIIAISLLLSSRNGSASGSASMKKKGSVVIVGRINLSGDTAYSQQTRGLEGCQETSQTGRDKNQVEGEVQVVSTATQSFLATSINGVLWTVYHGAGTRTIASPKGPVTQMYTNVDKDLVGWQAPQGSRSLTPCTCGSSDLYLVTRHADVIPVRRRGDSRGSLLSPRPISYLKGSAGGPLLCPAGHAVGIFRAAVSTRGVAKAVDFIPVESLETTMRSP", "values": [{"measurement": "percent killing, NS3a scaffold with GNCR1-casp-9", "setting": "500 nM grazoprevir", "result": "modest death"}]}
